Test results taken from paper PMC7036032.

Molecular target: T1, CstF77 (human), Q12996
T1 chain: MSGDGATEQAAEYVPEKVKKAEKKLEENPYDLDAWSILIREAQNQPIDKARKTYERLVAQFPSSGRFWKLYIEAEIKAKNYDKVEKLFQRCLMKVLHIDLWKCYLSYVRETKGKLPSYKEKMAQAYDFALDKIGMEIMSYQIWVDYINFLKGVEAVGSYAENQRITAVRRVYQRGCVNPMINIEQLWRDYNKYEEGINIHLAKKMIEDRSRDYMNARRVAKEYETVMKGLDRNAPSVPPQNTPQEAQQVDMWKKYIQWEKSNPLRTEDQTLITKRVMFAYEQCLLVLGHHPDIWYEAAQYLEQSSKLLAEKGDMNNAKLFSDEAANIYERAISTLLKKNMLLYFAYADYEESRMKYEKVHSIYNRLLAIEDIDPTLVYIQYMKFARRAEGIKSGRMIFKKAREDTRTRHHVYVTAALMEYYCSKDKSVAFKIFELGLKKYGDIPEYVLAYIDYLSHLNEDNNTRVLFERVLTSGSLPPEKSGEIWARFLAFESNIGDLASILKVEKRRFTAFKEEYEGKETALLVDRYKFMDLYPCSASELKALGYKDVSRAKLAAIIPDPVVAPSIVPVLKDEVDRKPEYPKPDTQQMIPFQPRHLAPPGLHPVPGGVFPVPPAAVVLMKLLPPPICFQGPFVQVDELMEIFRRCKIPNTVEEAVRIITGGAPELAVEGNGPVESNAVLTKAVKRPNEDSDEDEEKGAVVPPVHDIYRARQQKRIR
Assay: cryo-EM structure
Conditions: remark: other sources report otherwise

stoichiometry N: 2
B1: CstF77, Q12996 1-717 (natural protein)
chain: MSGDGATEQAAEYVPEKVKKAEKKLEENPYDLDAWSILIREAQNQPIDKARKTYERLVAQFPSSGRFWKLYIEAEIKAKNYDKVEKLFQRCLMKVLHIDLWKCYLSYVRETKGKLPSYKEKMAQAYDFALDKIGMEIMSYQIWVDYINFLKGVEAVGSYAENQRITAVRRVYQRGCVNPMINIEQLWRDYNKYEEGINIHLAKKMIEDRSRDYMNARRVAKEYETVMKGLDRNAPSVPPQNTPQEAQQVDMWKKYIQWEKSNPLRTEDQTLITKRVMFAYEQCLLVLGHHPDIWYEAAQYLEQSSKLLAEKGDMNNAKLFSDEAANIYERAISTLLKKNMLLYFAYADYEESRMKYEKVHSIYNRLLAIEDIDPTLVYIQYMKFARRAEGIKSGRMIFKKAREDTRTRHHVYVTAALMEYYCSKDKSVAFKIFELGLKKYGDIPEYVLAYIDYLSHLNEDNNTRVLFERVLTSGSLPPEKSGEIWARFLAFESNIGDLASILKVEKRRFTAFKEEYEGKETALLVDRYKFMDLYPCSASELKALGYKDVSRAKLAAIIPDPVVAPSIVPVLKDEVDRKPEYPKPDTQQMIPFQPRHLAPPGLHPVPGGVFPVPPAAVVLMKLLPPPICFQGPFVQVDELMEIFRRCKIPNTVEEAVRIITGGAPELAVEGNGPVESNAVLTKAVKRPNEDSDEDEEKGAVVPPVHDIYRARQQKRIR
